Laboratory results as given in doi:10.1101/2020.03.03.974444.

Target: myc-tagged human Patched-1 (Ptch1-1B-myc) (human) (UniProt Q13635)
Assay: co-IP

UniProt Q13635, sequence (Q13635 whole entry): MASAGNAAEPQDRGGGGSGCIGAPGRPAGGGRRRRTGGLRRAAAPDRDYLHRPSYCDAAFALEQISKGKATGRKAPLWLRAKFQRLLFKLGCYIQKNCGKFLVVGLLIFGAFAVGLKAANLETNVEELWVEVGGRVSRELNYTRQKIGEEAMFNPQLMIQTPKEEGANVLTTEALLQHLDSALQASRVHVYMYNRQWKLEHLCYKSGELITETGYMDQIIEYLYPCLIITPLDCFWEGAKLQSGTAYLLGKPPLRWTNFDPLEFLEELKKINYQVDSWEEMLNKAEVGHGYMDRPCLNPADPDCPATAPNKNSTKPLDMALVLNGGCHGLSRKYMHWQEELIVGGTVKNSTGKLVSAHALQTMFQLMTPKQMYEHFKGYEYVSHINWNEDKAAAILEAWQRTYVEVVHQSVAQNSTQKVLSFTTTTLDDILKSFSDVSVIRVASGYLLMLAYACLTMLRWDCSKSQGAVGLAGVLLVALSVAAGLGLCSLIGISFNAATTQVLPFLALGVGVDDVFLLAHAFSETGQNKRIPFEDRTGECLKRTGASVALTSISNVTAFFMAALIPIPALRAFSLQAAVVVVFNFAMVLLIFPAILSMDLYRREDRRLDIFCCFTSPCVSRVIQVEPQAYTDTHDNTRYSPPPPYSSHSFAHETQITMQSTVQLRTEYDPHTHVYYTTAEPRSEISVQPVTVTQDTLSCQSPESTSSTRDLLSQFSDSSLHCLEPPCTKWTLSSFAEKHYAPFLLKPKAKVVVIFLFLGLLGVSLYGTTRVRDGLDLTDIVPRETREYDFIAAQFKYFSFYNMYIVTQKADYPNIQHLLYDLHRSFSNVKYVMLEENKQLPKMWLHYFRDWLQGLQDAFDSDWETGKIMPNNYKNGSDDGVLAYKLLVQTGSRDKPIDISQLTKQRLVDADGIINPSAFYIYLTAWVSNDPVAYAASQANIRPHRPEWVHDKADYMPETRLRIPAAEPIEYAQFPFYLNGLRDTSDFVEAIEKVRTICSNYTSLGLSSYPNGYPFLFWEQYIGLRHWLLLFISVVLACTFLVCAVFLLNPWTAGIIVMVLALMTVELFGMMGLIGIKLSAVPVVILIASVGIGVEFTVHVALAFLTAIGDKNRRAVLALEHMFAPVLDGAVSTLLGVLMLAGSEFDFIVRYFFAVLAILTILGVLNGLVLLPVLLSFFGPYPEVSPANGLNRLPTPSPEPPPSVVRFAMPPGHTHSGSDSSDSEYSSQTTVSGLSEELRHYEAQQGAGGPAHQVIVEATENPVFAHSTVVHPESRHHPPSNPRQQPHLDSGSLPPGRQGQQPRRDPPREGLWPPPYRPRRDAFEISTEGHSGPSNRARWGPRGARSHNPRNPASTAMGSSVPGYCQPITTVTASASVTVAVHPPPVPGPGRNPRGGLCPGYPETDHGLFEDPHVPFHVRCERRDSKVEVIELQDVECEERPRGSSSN

## N-terminal Sonic Hedgehog (N-Shh) (from UniProt Q62226 25-437) (domain or fragment)
  percent reduction of FL-Dhh binding to Ptch1: 70 to 80%
